± gives the uncertainty stated by the source.
B1: CD2-associated protein, residues 1 to 59; numbered along this chain, Q9Y5K6 (parent)
chain: MVDYIVEYDYDAVHDDELTIRVGEIIRNVKKLQEEGWLEGELNGRRGMFPDNFVKEIKR

Variants of: B1
Test: abundance fitness (aPCA) (normalised: wild type 0, dead -1); higher = more abundant; growth selection in yeast, the domain comes from the species named
Conditions: Homo sapiens

Abundance fitness: each site, then its substitutions
M1: A 0.05 ± 0.4, C -0.28 ± 0.15, E -0.276 ± 0.23, F -0.137 ± 0.38, G -0.14 ± 0.14, H -0.209 ± 0.21, I 0.078 ± 0.17, K 0.142 ± 0.12, L 0.015 ± 0.097, N -0.425 ± 0.34, Q -0.301 ± 0.34, R -0.083 ± 0.12, S 0.072 ± 0.14, T -0.228 ± 0.11, V -0.153 ± 0.15, W -0.163 ± 0.1, Y -0.375 ± 0.37
V2: A -0.074 ± 0.071, C -0.062 ± 0.12, D -0.119 ± 0.22, E -0.031 ± 0.096, F 0.008 ± 0.14, H -0.486 ± 0.21, I 0.054 ± 0.16, K 0.086 ± 0.093, L -0.087 ± 0.074, M 0.087 ± 0.12, N 0.064 ± 0.27, Q -0.224 ± 0.18, R -0.084 ± 0.099, S -0.029 ± 0.15, T -0.095 ± 0.2, W -0.138 ± 0.2, Y -0.166 ± 0.22
D3: A -0.232 ± 0.066, C -0.237 ± 0.085, E 0.014 ± 0.065, G -0.437 ± 0.065, H -0.188 ± 0.1, I -0.453 ± 0.094, K -0.297 ± 0.079, L -0.267 ± 0.051, M -0.135 ± 0.072, N 0.012 ± 0.18, P -0.436 ± 0.11, Q -0.188 ± 0.068, R -0.255 ± 0.046, S -0.048 ± 0.055, V -0.379 ± 0.067
Y4: A -0.254 ± 0.15, C -0.173 ± 0.14, D -0.826 ± 0.26, H -0.554 ± 0.21, I -0.844 ± 0.28, K -0.486 ± 0.15, L -0.476 ± 0.11, M -0.086 ± 0.13, P -0.863 ± 0.35, Q -0.687 ± 0.39, R -0.404 ± 0.091, T -0.136 ± 0.12, V -0.042 ± 0.13, W -0.166 ± 0.098
I5: A -0.544 ± 0.17, C -0.343 ± 0.21, D -0.556 ± 0.32, E -0.267 ± 0.18, G -0.704 ± 0.16, L -0.105 ± 0.1, M 0 ± 0.14, N -0.681 ± 0.36, P -0.979 ± 0.41, Q 0.037 ± 0.18, R -0.128 ± 0.12, S -0.317 ± 0.1, T -0.335 ± 0.14, V -0.097 ± 0.075
V6: A -0.08 ± 0.063, E -0.96 ± 0.33, F -0.483 ± 0.13, G -0.438 ± 0.066, H -0.832 ± 0.2, K -0.579 ± 0.18, M -0.795 ± 0.2, N -1.04 ± 0.31, P -1.2 ± 0.39, R -0.875 ± 0.12, S -0.363 ± 0.054, T -0.367 ± 0.082, Y -0.52 ± 0.14
E7: A -0.135 ± 0.079, D -0.256 ± 0.15, H -0.581 ± 0.35, I 0.025 ± 0.15, L -0.004 ± 0.057, N -0.311 ± 0.17, P -0.697 ± 0.13, Q -0.131 ± 0.11, R -0.087 ± 0.074, S -0.212 ± 0.094, T 0.028 ± 0.074, V 0.008 ± 0.072, Y -0.18 ± 0.18
Y8: A 0.002 ± 0.082, C 0.096 ± 0.11, D -0.197 ± 0.22, E -0.02 ± 0.099, F 0.078 ± 0.18, G -0.026 ± 0.1, H 0.148 ± 0.23, I 0.184 ± 0.2, K 0.057 ± 0.12, L -0.047 ± 0.084, M -0.261 ± 0.12, P -0.918 ± 0.34, Q 0.04 ± 0.12, R 0.097 ± 0.098, S 0.013 ± 0.078, T 0.123 ± 0.16, V -0.154 ± 0.11, W -0.139 ± 0.094
D9: A -0.091 ± 0.14, C -0.671 ± 0.37, E -0.346 ± 0.12, G -0.242 ± 0.096, K -0.369 ± 0.32, L -0.92 ± 0.24, N -0.276 ± 0.4, R -0.417 ± 0.11, S -0.172 ± 0.13, T -0.725 ± 0.21, V -0.77 ± 0.37
Y10: A -0.787 ± 0.14, C -0.569 ± 0.22, D -0.473 ± 0.46, E -0.787 ± 0.19, G -0.671 ± 0.21, H -0.257 ± 0.28, I -0.812 ± 0.37, K -0.322 ± 0.077, L -0.782 ± 0.1, M -0.667 ± 0.11, N -0.599 ± 0.33, P -0.904 ± 0.26, Q -1.18 ± 0.31, R -0.014 ± 0.062, S -0.999 ± 0.17, T -0.878 ± 0.18, V -1.06 ± 0.39, W -0.037 ± 0.062
D11: N -0.086 ± 0.17, V -0.002 ± 0.16, Y -0.242 ± 0.14
A12: C -0.35 ± 0.14, D -0.846 ± 0.44, E -0.435 ± 0.18, H -0.924 ± 0.43, I -0.782 ± 0.21, K -0.205 ± 0.14, L -1.12 ± 0.16, M -0.842 ± 0.22, N -0.618 ± 0.22, P -0.591 ± 0.1, Q -0.349 ± 0.12, R -0.416 ± 0.07, S -0.157 ± 0.088, T -0.716 ± 0.25, V -1.02 ± 0.24, W -0.942 ± 0.22, Y -1.05 ± 0.4
V13: E -0.058 ± 0.18, F -0.354 ± 0.22, G -0.046 ± 0.079, H -0.358 ± 0.47, I -0.431 ± 0.33, K -0.074 ± 0.14, L -0.188 ± 0.095, M -0.058 ± 0.18, N -0.164 ± 0.17, P -0.726 ± 0.19, Q -0.268 ± 0.23, R -0.149 ± 0.077, S 0.067 ± 0.1, T -0.275 ± 0.11, W -0.197 ± 0.13, Y -0.328 ± 0.25
H14: A -0.113 ± 0.14, C 0.152 ± 0.17, D -0.113 ± 0.18, E -0.016 ± 0.13, G -0.031 ± 0.087, K 0.088 ± 0.15, L -0.217 ± 0.093, N 0.09 ± 0.15, P -0.946 ± 0.26, Q -0.086 ± 0.15, R 0.021 ± 0.091, T -0.001 ± 0.12, V -0.186 ± 0.092, W -0.455 ± 0.17
D15: A -0.011 ± 0.092, C -0.284 ± 0.17, E 0.002 ± 0.094, F -0.325 ± 0.09, G -0.051 ± 0.12, H -0.078 ± 0.14, I -0.415 ± 0.24, K -0.078 ± 0.14, L -0.142 ± 0.054, M -0.305 ± 0.096, P -0.13 ± 0.2, Q -0.008 ± 0.11, R -0.146 ± 0.076, S -0.098 ± 0.06, V -0.038 ± 0.069, W -0.453 ± 0.13, Y -0.204 ± 0.11
D16: A -0.045 ± 0.059, C 0.229 ± 0.18, E -0.115 ± 0.086, F -0.297 ± 0.15, G -0.069 ± 0.068, K -0.095 ± 0.13, L -0.13 ± 0.076, M -0.073 ± 0.13, N 0.001 ± 0.16, P -0.434 ± 0.13, Q -0.12 ± 0.15, S -0.036 ± 0.076, T 0.005 ± 0.09, V -0.088 ± 0.065, W -0.08 ± 0.094, Y 0.03 ± 0.14
E17: A -0.628 ± 0.13, C -0.407 ± 0.27, D -0.13 ± 0.4, F -0.466 ± 0.33, G -0.34 ± 0.095, L -0.882 ± 0.25, M -0.534 ± 0.18, N -0.421 ± 0.23, Q 0.146 ± 0.14, R -0.567 ± 0.14, T -0.461 ± 0.27, V -0.747 ± 0.23, Y -0.736 ± 0.38
L18: A -0.683 ± 0.34, C -0.661 ± 0.49, F -0.846 ± 0.44, K -0.737 ± 0.46, M -0.244 ± 0.11, R -0.504 ± 0.32, S -0.651 ± 0.23, V -0.499 ± 0.14, Y -0.904 ± 0.43
T19: A -0.756 ± 0.14, C -0.384 ± 0.11, D -0.36 ± 0.15, F -0.841 ± 0.34, G -0.792 ± 0.17, H -0.399 ± 0.23, I -0.753 ± 0.16, K -0.464 ± 0.09, L -0.682 ± 0.11, M -0.713 ± 0.18, N -0.224 ± 0.11, P -0.685 ± 0.19, Q -0.498 ± 0.14, R -0.66 ± 0.16, S -0.033 ± 0.066, W -0.929 ± 0.23, Y -0.846 ± 0.22
I20: A -0.546 ± 0.14, C -0.292 ± 0.14, D -0.933 ± 0.34, F -0.373 ± 0.13, L -0.014 ± 0.057, M -0.019 ± 0.11, N -0.792 ± 0.24, P -0.762 ± 0.22, S -0.743 ± 0.2, V -0.225 ± 0.082, W -0.736 ± 0.39
R21: A -0.826 ± 0.19, C -0.284 ± 0.1, H -0.161 ± 0.15, K -0.28 ± 0.36, L -0.358 ± 0.088, M -0.713 ± 0.31, N -0.827 ± 0.37, P -0.793 ± 0.43, Q -0.414 ± 0.24, S -0.433 ± 0.091, T -0.593 ± 0.13, V -0.755 ± 0.12, Y -1 ± 0.33
V22: A 0.16 ± 0.15, C -0.304 ± 0.22, E 0.115 ± 0.16, F -0.17 ± 0.21, G -0.02 ± 0.19, H -0.201 ± 0.18, I -0.273 ± 0.15, L -0.438 ± 0.1, M -0.52 ± 0.2, R -0.082 ± 0.12, S -0.09 ± 0.086, T -0.067 ± 0.14, W -0.703 ± 0.47, Y -0.301 ± 0.25
G23: A -0.911 ± 0.29, C -0.831 ± 0.22, I -0.739 ± 0.34, K -0.383 ± 0.2, L -1.17 ± 0.28, M -0.918 ± 0.34, N -0.581 ± 0.24, P -1.04 ± 0.33, Q -0.557 ± 0.26, R -0.856 ± 0.18, S -0.651 ± 0.14, T -0.755 ± 0.24, V -0.844 ± 0.21, W -0.955 ± 0.33, Y -0.522 ± 0.24
E24: C -0.625 ± 0.13, D 0.321 ± 0.27, F -0.338 ± 0.26, G -0.341 ± 0.073, M -0.387 ± 0.12, N -0.412 ± 0.44, Q -0.263 ± 0.18, R -0.687 ± 0.087, T -0.449 ± 0.14
